# According to IntAct's records for PubMed 15197186:
# Tests used:
# mob1a_human MOB1A [1] = target: mob1a_human MOB1A (UniProt Q9H8S9)
# mob1a_human MOB1A [2] = target: mob1a_human MOB1A (UniProt Q9H8S9); remark: listed apart in the source
# Chain of mob1a_human MOB1A (Q9H8S9 whole entry): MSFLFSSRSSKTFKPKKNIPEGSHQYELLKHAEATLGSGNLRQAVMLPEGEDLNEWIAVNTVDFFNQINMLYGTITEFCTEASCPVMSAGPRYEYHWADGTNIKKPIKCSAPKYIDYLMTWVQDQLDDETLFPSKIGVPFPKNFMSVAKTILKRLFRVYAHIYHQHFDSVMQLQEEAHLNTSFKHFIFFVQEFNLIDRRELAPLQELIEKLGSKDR
# Chain of Serine/threonine-protein kinase 38 (Homo sapiens), Q15208 R44A (Q15208 whole entry R44A): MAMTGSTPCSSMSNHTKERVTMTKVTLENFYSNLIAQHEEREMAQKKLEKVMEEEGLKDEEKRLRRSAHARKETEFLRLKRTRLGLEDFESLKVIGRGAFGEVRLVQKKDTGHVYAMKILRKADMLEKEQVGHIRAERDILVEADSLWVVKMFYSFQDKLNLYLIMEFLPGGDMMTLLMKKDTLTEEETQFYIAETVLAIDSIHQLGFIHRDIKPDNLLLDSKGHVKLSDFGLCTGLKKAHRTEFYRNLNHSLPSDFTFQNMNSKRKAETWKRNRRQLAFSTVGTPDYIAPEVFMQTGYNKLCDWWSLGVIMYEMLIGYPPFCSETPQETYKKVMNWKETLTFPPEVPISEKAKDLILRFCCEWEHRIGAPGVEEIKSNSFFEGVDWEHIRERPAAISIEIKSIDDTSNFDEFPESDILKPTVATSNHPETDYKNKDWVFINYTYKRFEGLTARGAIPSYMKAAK
# Chain of Serine/threonine-protein kinase 38-like (Homo sapiens), Q9Y2H1 Y32A (Q9Y2H1 whole entry Y32A): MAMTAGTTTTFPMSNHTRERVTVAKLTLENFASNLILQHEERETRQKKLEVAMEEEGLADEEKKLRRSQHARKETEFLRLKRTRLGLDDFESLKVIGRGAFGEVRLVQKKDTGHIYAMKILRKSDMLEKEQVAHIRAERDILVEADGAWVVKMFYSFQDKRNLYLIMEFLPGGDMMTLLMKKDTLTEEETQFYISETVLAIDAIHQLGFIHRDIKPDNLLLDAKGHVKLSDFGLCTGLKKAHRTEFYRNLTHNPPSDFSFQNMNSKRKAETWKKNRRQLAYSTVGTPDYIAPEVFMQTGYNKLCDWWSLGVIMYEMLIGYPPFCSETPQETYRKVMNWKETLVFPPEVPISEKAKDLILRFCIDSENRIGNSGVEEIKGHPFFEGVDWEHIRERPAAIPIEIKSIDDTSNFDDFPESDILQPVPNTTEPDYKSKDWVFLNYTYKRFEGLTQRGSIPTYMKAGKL
# Chain of Serine/threonine-protein kinase 38 (Homo sapiens), Q15208 L79A (Q15208 whole entry L79A): as the sequence (Q15208 whole entry R44A) above, with A44R, L79A counted along it
# Chain of Serine/threonine-protein kinase 38 (Homo sapiens), Q15208 Y31A (Q15208 whole entry Y31A): as the sequence (Q15208 whole entry R44A) above, with Y31A, A44R counted along it
# Chain of Serine/threonine-protein kinase 38 (Homo sapiens), Q15208 R78A (Q15208 whole entry R78A): as the sequence (Q15208 whole entry R44A) above, with A44R, R78A counted along it
# Chain of Serine/threonine-protein kinase 38 (Homo sapiens), Q15208 K24A (Q15208 whole entry K24A): as the sequence (Q15208 whole entry R44A) above, with K24A, A44R counted along it
# Chain of Serine/threonine-protein kinase 38 (Homo sapiens), Q15208 R41A (Q15208 whole entry R41A): as the sequence (Q15208 whole entry R44A) above, with R41A, A44R counted along it
# Chain of Serine/threonine-protein kinase 38 (Homo sapiens), Q15208 T74A (Q15208 whole entry T74A): as the sequence (Q15208 whole entry R44A) above, with A44R, T74A counted along it
Substance,effect of a mutation on the interaction (mob1a_human MOB1A [1]),effect of a mutation on the interaction (mob1a_human MOB1A [2])
"Serine/threonine-protein kinase 38-like (Homo sapiens), Q9Y2H1 Y32A",disrupting interaction,–
"Serine/threonine-protein kinase 38 (Homo sapiens), Q15208 Y31A",–,disrupting interaction
"Serine/threonine-protein kinase 38 (Homo sapiens), Q15208 R78A",–,disrupting interaction
"Serine/threonine-protein kinase 38 (Homo sapiens), Q15208 R44A",–,decreasing interaction

# Other lines, results leading:
effect of a mutation on the interaction (mob1a_human MOB1A [1]),effect of a mutation on the interaction (mob1a_human MOB1A [2]),Substance
–,decreasing interaction,"Serine/threonine-protein kinase 38 (Homo sapiens), Q15208 K24A"
–,decreasing interaction,"Serine/threonine-protein kinase 38 (Homo sapiens), Q15208 L79A"
–,disrupting interaction,"Serine/threonine-protein kinase 38 (Homo sapiens), Q15208 R41A"
–,disrupting interaction,"Serine/threonine-protein kinase 38 (Homo sapiens), Q15208 T74A"
